In patent US20140045930A1, “ASSAY FOR ARGINYL HYDROXYLASE ACTIVITY” (priority 2011, published 2014):

How the values were obtained:
Type in all cases: biochemical
[1] = target: T1, YcfD (Escherichia coli, UniProt P27431); assay: NMR analyses of YcfD-catalysed hydroxylation; conditions: for hydroxylation by YcfD observed by 1H NMR: 1H NMR analyses (data not shown)
T1 construct: hexa-His (N); made in house; host or cells: E. coli BL21 (DE3), pET28a
T1 sequence (P27431 1-373): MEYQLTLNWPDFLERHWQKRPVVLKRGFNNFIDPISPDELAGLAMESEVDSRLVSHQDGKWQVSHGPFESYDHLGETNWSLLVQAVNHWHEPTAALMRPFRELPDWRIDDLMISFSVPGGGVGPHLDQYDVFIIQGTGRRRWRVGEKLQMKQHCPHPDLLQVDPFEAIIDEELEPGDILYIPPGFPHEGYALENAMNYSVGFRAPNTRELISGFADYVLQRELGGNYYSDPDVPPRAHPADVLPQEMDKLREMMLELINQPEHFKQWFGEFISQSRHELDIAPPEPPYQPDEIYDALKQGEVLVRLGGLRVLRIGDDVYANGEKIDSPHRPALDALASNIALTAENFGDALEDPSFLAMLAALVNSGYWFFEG
Excerpt: NMR-analyses used a Bruker AVIII 700 system equipped with an inverse TCI cryoprobe optimised for ^1H observation and running TOPSPIN 2 software. Chemical shifts are reported in ppm relative to D2O (δH 4.72); the deuterium signal was used as an internal lock signal and the HDO signal was reduced by presaturation where necessary.
(§1) Using a mass spectrometric (MS) based assay, we then screened YcfD with 21 known peptide fragments of substrates for three human 2OG dependent hydroxylases (PHD2, FIH, JMJD6), that encompasses known hydroxylation sites, including the HIF-1α N- and C-terminal oxygen dependent degradation domain (prolyl-hydroxylation), the HIF-1α C-terminal transcriptional activation domain (asparaginyl hydroxylation), ankyrin repeat domain peptides (asparaginyl hydroxylation), splicing regulatory protein fragments (lysyl5-hydroxylation), and collagen proyl-hyroxylase peptides. […] We then screened other available peptides including a set originally prepared for candidate hydroxylases from Pseudomonas spp., that are potential homologues of the human HIF prolyl-hydroxylases. […] MS-fragmentation analyses, unexpectedly, implied that the predicted hydroxylation occurred at the arginine-residue (Arg-12) at the -3position relative to the C-terminus of the substrate peptide (data not shown). This proposal was supported by ‘alanine scanning’ analyses hydroxylation was assessed for peptides in which substitution of alanine at every position in turn of RLLPAVSEATIRRL. […] We then employed NMR to investigate the regiochemistry of arginine-hydroxylation, employing an octameric peptide (AVSEATIR) containing a single arginine residue to simplify the analyses. This octameric peptide is set out in SEQ ID NO: 12. […] This contrasts with nitric oxide synthase which catalyses hydroxylation of L-arginine to give citrulline and nitric oxide via an Nω-hydroxyarginine intermediate.

[2] = target: T1, YcfD
[3] = target: T1, YcfD; assay: Hydroxylation assay by MALDI-TOF MS (peptide substrates, +16 Da mass shift); conditions: for % hydroxylation (+16 Da): peptide substrate incubated with YcfD, +16Da mass shift on products
Experimental: Assay mixtures (final volume 100 μL in 50 mM Tris-HCl, pH 7.5) contained: enzyme (10 μM), substrate (100 μM), 2OG (160 μM), Fe(II) (200 μM) and ascorbate (2 mM). The reaction mixture was incubated at 37° C. for 30 minutes. The reaction mixture was then placed on ice, 10 μl of 1% formic acid was added to quench the reaction, and the mixture was centrifuged to separate any insoluble material that precipitated during quenching. The resultant soluble mixture (1 μl) and α-cyano-4-hydroxycinnamic acid (CHCA) matrix solution (1 μl) (LaserBio Labs) were double spotted onto a 96 well MALDI sample plate, and when dry analysed using MALDI-TOF MS on a Waters Micromass™ MALDI micro MX™ mass spectrometer in negative ion reflectron mode.
as §1
Based on the identified peptide substrates for YcfD, we searched the E. coli genome for potential substrates and made a set of peptides. Screening for YcfD activity identified a number of further potential substrate sequences as observed by a +16Da mass shift on products. Examples of the peptide substrates are set out in the Table below.

Compound	% hydroxylation (+16 Da) [3] [%]	other results
AVSEATIR [octameric peptide containing a single arginine residue]	–	position of hydroxylation ([1]; 2D-NMR after incubation with YcfD and HPLC purification): at C-3 of the hydroxylated arginine-residue
O=C(O)/C=C/C(=O)O [fumarate]	–	inhibition of YcfD argininyl hydroxylase activity [2]: inhibitory
NTHRGMGYSLRGL [synthetic peptide, protein origin CreB]	30	–
O=C(O)CNC(=O)c1nc(Cl)c2ccccc2c1O [FG2216]	–	inhibition of YcfD argininyl hydroxylase activity [2]: inhibitory
LTHSLKTPLAVLQSTLRS [synthetic peptide, protein origin PhoQ]	90	–
VEALKERFQASLRD [synthetic peptide, protein origin Phenylalanyl-tRNA synthetase]	40	–
VAKCVEALKERFQASLRD [synthetic peptide, protein origin PheT]	50	–
O=C(O)c1ccnc(C(=O)O)c1 [pyridine-2,4-dicarboxylic acid]	–	inhibition of YcfD argininyl hydroxylase activity [2]: inhibitory
LLRLFFPLSLRV [synthetic peptide, protein origin PhoQ]	50	–
ATVAKCVEALKERFQASLRD [synthetic peptide, protein origin PheT]	40	–
O=c1c(-c2ccc(O)cc2)coc2cc(O)cc(O)c12 [genistein]	–	inhibition of YcfD argininyl hydroxylase activity [2]: inhibitory
O=C(O)c1cccc(C(=O)O)n1 [pyridine-2,6-dicarboxylic acid]	–	enhancement of YcfD activity [2]: Enhancers of YcfD activity
CC(=O)N[C@@H](CCCNC(=N)N)C(=O)O [N-α-acetyl-L-arginine]	–	hydroxylation by YcfD observed by 1H NMR [1]: No hydroxylation
O=C(O)c1c[nH]c2c(ccc3cccnc32)c1=O [FG0041]	–	inhibition of YcfD argininyl hydroxylase activity [2]: inhibitory
O=C(O)c1ccc(C(=O)O)nc1 [pyridine-2,5-dicarboxylic acid]	–	enhancement of YcfD activity [2]: Enhancers of YcfD activity
AQYPQEVITTVRG [synthetic peptide, protein origin PhoP]	60	–
RLLPAVSEATIRRL [14-residue synthetic peptide originally prepared for candidate hydroxylases from Pseudomonas spp; YcfD substrate]	–	hydroxylation by YcfD (+16Da mass shift) ([3]; MS based assay, Fe(II) and 2OG dependent): gave a +16Da mass shift
ELNREQKWQMMLSKSMRR [synthetic peptide, protein origin CaiF]	40	–
KTPLAVLQSTLRSLR [synthetic peptide, protein origin PhoQ]	40	–
O=C(O)CCC(=O)O [succinate]	–	inhibition of YcfD argininyl hydroxylase activity [2]: inhibitory
KHVQALDLSMRFR [synthetic peptide, protein origin Nicotinate-nucleotide diphosphorylase]	30	–
LAVLQSTLRSLRS [synthetic peptide, protein origin PhoQ]	60	–
LTELNREQKWQMMLSKSMRR [synthetic peptide, protein origin CaiF]	40	–
KLLRLFFPLSLRV [synthetic peptide, protein origin PhoQ]	60	–
KWQMMLSKSMRR [synthetic peptide, protein origin CaiF]	30	–
N=C(N)NCCC[C@H](N)C(=O)O [L-arginine]	–	hydroxylation by YcfD observed by 1H NMR [1]: No hydroxylation
O=C(O)CNC(=O)C(=O)O [N-oxalylglycine]	–	inhibition of YcfD argininyl hydroxylase activity [2]: inhibitory
KTPLAVLQSTLRS [synthetic peptide, protein origin PhoQ]	95	–
